Target: SARS-CoV-2 Spike蛋白 (去除末端19个氨基酸), 新冠假病毒表面 (SARS-CoV-2, UniProt P0DTC2 14-1254)
Test: cell-based or functional assay

B1: 人鼠嵌合全抗体mhC3 (antibody, V domains shown)
VH: EVQLVESGGDLVKPGGSLKLSCAASGFTFNTYAMNWVRQTPGKGLEWVARIRSKSNNYATYYADSVKDRFTISRDDSQSMLYLQMNNLKTEDTAMYYCVTPYYGNYADWFTYWGQGTSVTVSS
VL: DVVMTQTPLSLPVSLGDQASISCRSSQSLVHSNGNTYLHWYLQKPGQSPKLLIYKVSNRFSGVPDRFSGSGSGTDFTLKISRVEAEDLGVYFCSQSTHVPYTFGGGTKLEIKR
notes: also called mhC3抗体; C3 (图5、图6)
  中和新冠假病毒 EC50 (luciferase, Huh7细胞): 0.223 µg/mL

Source: patent CN111995674A (INST MILITARY MEDICINE ACADEMY MILITARY SCIENCES PLA, dated 2020)
